According to publication PMC3575195 (Nature communications, 2012):

What was measured:
TRPP3-mCherry (human) = TRPP3-mCherry (human) (UniProt Q9P0L9); test: single-molecule photobleaching
SEC-MALS = target: the molecule itself; test: SEC-MALS
[1] = target: the molecule itself; test: single-molecule photobleaching
PKD1L3-mCherry = PKD1L3-mCherry (mouse, UniProt Q2EG98 21-2151); test: single-molecule photobleaching
PKD1L3-mCherry, sequence (Q2EG98 21-2151): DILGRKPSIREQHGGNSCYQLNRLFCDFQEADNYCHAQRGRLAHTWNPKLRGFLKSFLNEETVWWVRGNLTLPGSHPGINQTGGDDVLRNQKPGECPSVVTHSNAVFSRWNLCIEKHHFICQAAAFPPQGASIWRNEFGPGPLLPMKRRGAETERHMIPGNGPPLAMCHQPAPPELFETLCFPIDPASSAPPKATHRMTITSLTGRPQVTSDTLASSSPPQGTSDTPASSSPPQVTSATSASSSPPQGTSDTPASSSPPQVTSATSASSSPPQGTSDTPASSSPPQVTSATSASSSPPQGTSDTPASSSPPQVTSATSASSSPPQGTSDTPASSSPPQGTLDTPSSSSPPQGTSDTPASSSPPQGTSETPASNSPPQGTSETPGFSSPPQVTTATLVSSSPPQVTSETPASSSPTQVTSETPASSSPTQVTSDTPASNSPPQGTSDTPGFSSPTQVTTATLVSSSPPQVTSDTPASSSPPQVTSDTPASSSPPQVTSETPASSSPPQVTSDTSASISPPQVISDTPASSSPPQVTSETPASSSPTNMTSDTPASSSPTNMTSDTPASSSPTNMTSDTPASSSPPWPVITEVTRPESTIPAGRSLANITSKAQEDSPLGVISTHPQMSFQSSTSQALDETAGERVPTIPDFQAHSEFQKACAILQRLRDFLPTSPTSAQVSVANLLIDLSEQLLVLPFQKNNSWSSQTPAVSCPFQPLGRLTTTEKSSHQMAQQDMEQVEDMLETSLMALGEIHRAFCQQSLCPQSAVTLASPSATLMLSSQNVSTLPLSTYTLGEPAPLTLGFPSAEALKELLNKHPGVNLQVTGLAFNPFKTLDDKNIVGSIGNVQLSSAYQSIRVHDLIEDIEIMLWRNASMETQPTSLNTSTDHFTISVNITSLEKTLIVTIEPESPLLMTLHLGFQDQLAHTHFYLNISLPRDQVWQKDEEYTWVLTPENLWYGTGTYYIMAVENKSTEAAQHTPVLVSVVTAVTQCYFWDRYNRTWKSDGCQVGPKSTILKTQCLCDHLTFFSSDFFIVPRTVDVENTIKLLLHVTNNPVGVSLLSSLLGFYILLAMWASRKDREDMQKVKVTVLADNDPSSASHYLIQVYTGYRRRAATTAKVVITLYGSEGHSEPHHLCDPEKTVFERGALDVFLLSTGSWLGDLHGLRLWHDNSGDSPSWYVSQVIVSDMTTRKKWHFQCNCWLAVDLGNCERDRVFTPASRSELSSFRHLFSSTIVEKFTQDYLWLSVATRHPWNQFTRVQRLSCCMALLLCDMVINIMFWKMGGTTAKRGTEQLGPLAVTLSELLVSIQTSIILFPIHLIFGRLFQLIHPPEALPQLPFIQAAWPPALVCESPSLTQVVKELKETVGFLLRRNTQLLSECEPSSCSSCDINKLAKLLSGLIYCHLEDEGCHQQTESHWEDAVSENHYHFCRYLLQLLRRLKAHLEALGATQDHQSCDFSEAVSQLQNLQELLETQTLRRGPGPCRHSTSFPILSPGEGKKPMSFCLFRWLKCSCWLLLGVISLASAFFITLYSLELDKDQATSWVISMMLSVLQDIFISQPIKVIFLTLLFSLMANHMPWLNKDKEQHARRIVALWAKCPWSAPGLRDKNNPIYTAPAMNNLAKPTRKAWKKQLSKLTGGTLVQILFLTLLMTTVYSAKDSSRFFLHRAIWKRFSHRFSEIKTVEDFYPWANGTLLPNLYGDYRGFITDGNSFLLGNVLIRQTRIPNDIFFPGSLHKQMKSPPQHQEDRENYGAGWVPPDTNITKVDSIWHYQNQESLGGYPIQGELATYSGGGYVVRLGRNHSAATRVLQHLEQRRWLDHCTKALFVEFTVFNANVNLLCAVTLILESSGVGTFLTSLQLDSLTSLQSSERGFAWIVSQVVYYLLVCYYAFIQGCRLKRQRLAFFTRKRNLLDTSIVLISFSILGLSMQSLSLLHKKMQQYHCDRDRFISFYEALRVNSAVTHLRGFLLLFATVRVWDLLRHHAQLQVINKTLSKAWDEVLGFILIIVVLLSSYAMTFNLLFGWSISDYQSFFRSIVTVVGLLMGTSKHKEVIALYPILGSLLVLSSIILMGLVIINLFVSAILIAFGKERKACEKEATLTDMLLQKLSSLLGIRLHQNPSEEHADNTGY

Molecule: PKD1L3-EGFP, Q2EG98 21-2151
- stoichiometry N (TRPP3-mCherry (human)): 1

B1: MBP-TRPP3_CT (domain or fragment)
chain: KEELAGQKDELQLSDLLKQGYNKTLLRLRLRKERVSDVQKVLQGGEQEIQFEDFTNTLRELGHAEHEITELTATFTKFDRDGNRILDEKEQEKMRQDLEEERVALNTEIEKLGRSIVSSPQGKSGPEAARAGGWVSGEEFYMLTRRVLQLETVLEGVVSQIDAVGSKLKMLERKGWLAPSPGVKEQAIWKHPQPAPAVTPDPWGVQGGQESEVPYKREEEALEERRLSRGEIPTLQRS
- stoichiometry N (SEC-MALS): 3

B2: TRPP3-EGFP (natural protein)
chain: MNAVGSPEGQELQKLGSGAWDNPAYSGPPSPHGTLRVCTISSTGPLQPQPKKPEDEPQETAYRTQVSSCCLHICQGIRGLWGTTLTENTAENRELYIKTTLRELLVYIVFLVDICLLTYGMTSSSAYYYTKVMSELFLHTPSDTGVSFQAISSMADFWDFAQGPLLDSLYWTKWYNNQSLGHGSHSFIYYENMLLGVPRLRQLKVRNDSCVVHEDFREDILSCYDVYSPDKEEQLPFGPFNGTAWTYHSQDELGGFSHWGRLTSYSGGGYYLDLPGSRQGSAEALRALQEGLWLDRGTRVVFIDFSVYNANINLFCVLRLVVEFPATGGAIPSWQIRTVKLIRYVSNWDFFIVGCEVIFCVFIFYYVVEEILELHIHRLRYLSSIWNILDLVVILLSIVAVGFHIFRTLEVNRLMGKLLQQPNTYADFEFLAFWQTQYNNMNAVNLFFAWIKIFKYISFNKTMTQLSSTLARCAKDILGFAVMFFIVFFAYAQLGYLLFGTQVENFSTFIKCIFTQFRIILGDFDYNAIDNANRILGPAYFVTYVFFVFFVLLNMFLAIINDTYSEVKEELAGQKDELQLSDLLKQGYNKTLLRLRLRKERVSDVQKVLQGGEQEIQFEDFTNTLRELGHAEHEITELTATFTKFDRDGNRILDEKEQEKMRQDLEEERVALNTEIEKLGRSIVSSPQGKSGPEAARAGGWVSGEEFYMLTRRVLQLETVLEGVVSQIDAVGSKLKMLERKGWLAPSPGVKEQAIWKHPQPAPAVTPDPWGVQGGQESEVPYKREEEALEERRLSRGEIPTLQRS
- stoichiometry N [1]: 3
- stoichiometry N (PKD1L3-mCherry): 3
